Among the targets are 4A01v6; 4A01v4; 4A01v5; 4A01v8; 4A01v3-5; 4A01v9; 4A01v3-1; 4A01v3; 4A01v3-8; 4A01v3-7; 4A01v3-4; 4A01v1; 4A01v3-3.
What all share (test): ELISA
(In general: An ELISA detects its analyte on a solid surface through an enzyme-linked reagent.)

B1: rat (other)
chain: EAHKSEIAHRFKDLGEQHFKGLVLIAFSQYLQKCPYEEHIKLVQEVTDFAKTCVADENAENCDKSIHTLFGDKLCAIPKLRDNYGELADCCAKQEPERNECFLQHKDDNPNLPPFQRPEAEAMCTSFQENPTSFLGHYLHEVARRHPYFYAPELLYYAEKYNEVLTQCCTESDKAACLTPKLDAVKEKALVAAVRQRMKCSSMQRFGERAFKAWAVARMSQRFPNAEFAEITKLATDVTKINKECCHGDLLECADDRAELAKYMCENQATISSKLQACCDKPVLQKSQCLAEIEHDNIPADLPSIAADFVEDKEVCKNYAEAKDVFLGTFLYEYSRRHPDYSVSLLLRLAKKYEATLEKCCAEGDPPACYGTVLAEFQPLVEEPKNLVKTNCELYEKLGEYGFQNAVLVRYTQKAPQVSTPTLVEAARNLGRVGTKCCTLPEAQRLPCVEDYLSAILNRLCVLHEKTPVSEKVTKCCSGSLVERRPCFSALTVDETYVPKEFKAETFTFHSDICTLPDKEKQIKKQTALAELVKHKPKATEDQLKTVMGDFAQFVDKCCKAADKDNCFATEGPNLVARSKEALA
The term Kd denotes the concentration at which binding is half-saturated. A lower Kd goes with higher affinity. B1: the Kd was found to be 0.273 nM with 4A01v6; 0.32 nM in the assay with 4A01v4; 0.26 nM with 4A01v5; 0.328 nM in the assay with 4A01v8; 0.162 nM with 4A01v3-5; 0.144 nM in the assay with 4A01v9. The Kd with 4A01v3-1 is 0.13 nM; in the assay with 4A01v3, 0.162 nM; with 4A01v3-8 it was 0.169 nM; with 4A01v3-7, 0.123 nM; with 4A01v3-4, 0.252 nM; in the assay with 4A01v1 it was 0.184 nM. This molecule displayed a Kd with 4A01v3-3 of 0.152 nM.

The record behind these values is US20250277018A1 (published 2025).
